In patent US20240287172A1 (SCIRHOM, published 2024):

T1: hiR2-FL-E557D-T7 (human, UniProt Q6PJF5 1-856)
T1 sequence: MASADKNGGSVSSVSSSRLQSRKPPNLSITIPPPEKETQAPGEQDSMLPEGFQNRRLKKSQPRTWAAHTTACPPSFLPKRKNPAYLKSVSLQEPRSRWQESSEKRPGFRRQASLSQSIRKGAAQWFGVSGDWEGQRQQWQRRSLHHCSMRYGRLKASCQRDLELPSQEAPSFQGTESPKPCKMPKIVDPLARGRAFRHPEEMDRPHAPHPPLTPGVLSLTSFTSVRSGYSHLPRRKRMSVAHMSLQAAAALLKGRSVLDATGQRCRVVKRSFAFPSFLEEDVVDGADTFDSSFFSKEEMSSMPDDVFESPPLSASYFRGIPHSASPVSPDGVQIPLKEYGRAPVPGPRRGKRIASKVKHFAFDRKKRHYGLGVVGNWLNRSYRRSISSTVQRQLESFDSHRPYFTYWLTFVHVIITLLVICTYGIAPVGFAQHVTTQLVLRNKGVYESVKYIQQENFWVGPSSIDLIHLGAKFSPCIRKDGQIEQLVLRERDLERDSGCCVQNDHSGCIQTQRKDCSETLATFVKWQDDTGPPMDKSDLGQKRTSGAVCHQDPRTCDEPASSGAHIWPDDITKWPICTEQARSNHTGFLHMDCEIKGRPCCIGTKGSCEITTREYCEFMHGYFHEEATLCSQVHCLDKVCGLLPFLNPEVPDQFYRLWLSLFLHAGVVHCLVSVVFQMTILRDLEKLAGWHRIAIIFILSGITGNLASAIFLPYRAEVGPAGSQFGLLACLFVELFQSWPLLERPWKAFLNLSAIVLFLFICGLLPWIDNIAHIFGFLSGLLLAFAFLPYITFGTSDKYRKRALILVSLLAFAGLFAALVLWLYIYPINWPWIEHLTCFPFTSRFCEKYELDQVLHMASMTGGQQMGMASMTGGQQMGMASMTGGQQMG

T2: hiR2-FL-S562E-T7 (human, UniProt Q6PJF5 1-856)
T2 sequence: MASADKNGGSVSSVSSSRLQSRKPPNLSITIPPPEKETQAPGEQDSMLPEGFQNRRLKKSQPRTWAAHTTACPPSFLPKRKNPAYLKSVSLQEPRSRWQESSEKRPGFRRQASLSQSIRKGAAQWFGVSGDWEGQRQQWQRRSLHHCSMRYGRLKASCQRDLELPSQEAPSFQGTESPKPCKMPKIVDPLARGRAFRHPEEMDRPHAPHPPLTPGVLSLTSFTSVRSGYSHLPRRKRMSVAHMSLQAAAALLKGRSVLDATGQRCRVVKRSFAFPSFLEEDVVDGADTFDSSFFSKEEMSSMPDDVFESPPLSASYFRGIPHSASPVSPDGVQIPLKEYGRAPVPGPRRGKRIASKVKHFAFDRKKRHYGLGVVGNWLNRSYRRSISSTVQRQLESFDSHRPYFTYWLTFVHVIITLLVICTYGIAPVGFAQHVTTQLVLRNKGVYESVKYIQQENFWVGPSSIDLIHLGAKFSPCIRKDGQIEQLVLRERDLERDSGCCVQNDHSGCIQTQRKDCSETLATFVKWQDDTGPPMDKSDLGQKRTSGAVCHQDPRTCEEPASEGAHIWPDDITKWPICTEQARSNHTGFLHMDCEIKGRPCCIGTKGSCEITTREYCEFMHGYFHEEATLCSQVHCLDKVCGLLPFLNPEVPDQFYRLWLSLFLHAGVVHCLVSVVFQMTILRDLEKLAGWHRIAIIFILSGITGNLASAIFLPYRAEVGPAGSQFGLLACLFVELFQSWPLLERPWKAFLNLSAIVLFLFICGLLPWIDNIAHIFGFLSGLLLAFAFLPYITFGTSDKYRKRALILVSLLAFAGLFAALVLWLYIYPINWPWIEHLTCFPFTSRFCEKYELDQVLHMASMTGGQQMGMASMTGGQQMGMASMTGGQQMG


Assays:
hiR2-FL-E557D-T7 = target: T1, hiR2-FL-E557D-T7; test: FACS, MEF-DKO cells, 3 µg/ml
From the text: (§1) In brief, immortalized MEF-DKO-hiR2-FL-G498A-T7, MEF-DKO-hiR2-FL-Q502R-T7, MEF-DKO-hiR2-FL-I509V-T7, MEF-DKO-hiR2-FL-Q512S-T7, MEF-DKO-hiR2-FL-R513E-T7, MEF-DKO-hiR2-FL-K514E-T7, MEF-DKO-hiR2-FL-D515E-T7, MEF-DKO-hiR2-FL-E518S-T7, MEF-DKO-hiR2-FL-T522V-T7, MEF-DKO-hiR2-FL-F523W-T7, MEF-DKO-hiR2-FL-Q527P-T7, MEF-DKO-hiR2-FL-D528I-T7, MEF-DKO-hiR2-FL-D529H-T7, MEF-DKO-hiR2-FL-T530P-T7, MEF-DKO-hiR2-FL-G531S-T7, MEF-DKO-hiR2-FL-P532A-T7, MEF-DKO-hiR2-FL-M534-T7, MEF-DKO-hiR2-FL-D535-T7, MEF-DKO-hiR2-FL-K536-T7, MEF-DKO-hiR2-FL-S537E-T7, MEF-DKO-hiR2-FL-D538L-T7, MEF-DKO-hiR2-FL-L539A-T7, MEF-DKO-hiR2-FL-Q541H-T7, MEF-DKO-hiR2-FL-T544Q-T7, MEF-DKO-hiR2-FL-S545F-T7, MEF-DKO-hiR2-FL-A547S-T7, MEF-DKO-hiR2-FL-T555V-T7, MEF-DKO-hiR2-FL-E557D-T7, MEF-DKO-hiR2-FL-A560S-T7 and MEF-DKO-hiR2-FL-S562E-T7 cells were harvested with 10 mM EDTA in PBS, washed and resuspended in FACS buffer (PBS, 3% FBS, 0.05% sodium azide), and seeded in Nunc U-bottom 96-well plates (Thermo Fisher Scientific, USA) at approximately 3×10⁵ cells per well. To pellet cells and remove supernatants, the plates were centrifuged at 1,500 rpm and 4° C. for 3 minutes. For primary staining, cells were resuspended in 100 μl per well of either FACS buffer alone (controls) or the purified antibodies 3, 5, 16, 22, 34, 42, 43, 44, 48, and 50 of the invention at 3 μg/ml in FACS buffer and incubated on ice for 1 hour. Afterwards, plates were centrifuged at 1,500 rpm and 4° C. for 3 minutes and washed twice with 200 μl per well of FACS buffer. For secondary staining, cells were spun down and resuspended in 100 μl per well of PE-conjugated goat anti-mouse IgG F(ab′)2 detection fragment (Dianova, Germany) diluted 1:100 in FACS buffer. Protected from light, the cell suspensions were incubated on ice for 1 hour. Plates were then centrifuged at 1,500 rpm and 4° C. for 3 minutes and washed three times with 200 μl per well of FACS buffer. Finally, cells were resuspended in 150 μl per well of FACS buffer and analyzed using a BD Accuri™ C6 Plus flow cytometer (Becton Dickinson, Germany).

hiR2-FL-S562E-T7 = target: T2, hiR2-FL-S562E-T7; test: FACS, MEF-DKO cells, 3 µg/ml
From the text: as §1

Binder | loss of binding vs wild type (hiR2-FL-E557D-T7) | loss of binding vs wild type (hiR2-FL-S562E-T7)
antibody 34 (antibody, V domains shown, mouse IgG, kappa light chain; also called clone #34; purified antibody 34) VH: QVTLKESGPGILQPSQTLSLTCSFSGFSLSTFSLGVGWIRQSSGKGLEWLAHIWWDDEKYYNPALKSRLTISKDTSKNQVFLKIANVDAADTATYYCARAYYSKSYYALDYWGQGTSVTVSS VL: DIQMTQSPSSLSASLGERVSLTCRASQEISGYLSWLQQKPDGTIKRLIYAASTLDSGVPKRFSGSRSGSDYSLAISSLESEDFADYYCLQYANFPFTFGSGTKLEIK | ≥ 60% | ≥ 60%
antibody 48 (antibody, V domains shown, mouse IgG, kappa light chain; also called clone #48; purified antibody 48) VH: QVQLQQSGTELVRPGTSVKVSCKASGYAFTNYLIEWVKQRPGQGLEWIGVINPGSGFTKYNEKFKGKATLTADKSSSTVYMHLSSLTSEDSAVYFCARGLYRAMDYWGQGTSVTVSS VL: DIQMTQSPASQSASLGESVTITCLASQTIATWLAWYQQKPGKSPQLLIYGATTLADGVPSRFSGGGSGTKFSFKISSLQAEDFVSYYCQQLYSTPYTFGGGTKLEIK | ≥ 30% | ≥ 30%
antibody 50 (antibody, V domains shown, mouse IgG, kappa light chain; also called clone #50; purified antibody 50) VH: QVQLQQSGAELVRPGASVKVSCKASGYAFSNYLIEWVKQRPGQGLEWIGVINPGSGFTKYNEKFKGKATLTADKSSSTAYMQLSSLTSEDSAVYFCARGLYRAMDYWGQGTSVTVSS VL: DIQMTQSPASQSASLGESVTITCLASQTIGTWLAWYQQKPGKSPQLLIYAAASLADGVPSRFSGGGSGTKFSFKISSLQAEDFVNYYCQQIYSTPYTFGGGTKLEIK | ≥ 30% | ≥ 30%
antibody 5 (antibody, V domains shown, mouse IgG, kappa light chain; also called clone #5; purified antibody 5) VH: QVTLKESGPGILQPSQTLSLTCSFSGFSLSTFGMGVGWIRQPSGKGLEWLAHIWWDDEKYYNSALKSRLTISKATSKNQAFLKIANVDTADTATYYCARISNYGSNYWYFNVWGTGTTVTVSS VL: QVVLTQSPALMSASPGEKVTMTCSAGSSVSCMYWYQQKPGSSPRVLIYDTSNLASGVPARFTGSGSGTSYSLTISRMEAEDAASYYCQQWNSYPLTFGAGTKLELK | ≥ 60% | ≥ 60%
antibody 44 (antibody, V domains shown, mouse IgG, kappa light chain; also called clone #44; purified antibody 44) VH: QVTLKESGPGILQPSQTLSLTCSFSGFSLSTFGMGVGWIRQPSEKGLEWLAHIWWDDDKYYNPALKSRLTISKDTSKNQIFLKITNVDTAETATYYCSRIGNYGSNYWYFDVWGTGTTVTVSS VL: QIVLTQSPAVMSASPGEKVTMTCTASSSVYYMYWYQQTPGSSPRLLIYDTSNLASGVPVRFSGSGSGTSYSLTISRMEAEDAATYYCQQWNTYPLTFGAGTKLELK | ≥ 30% | ≥ 30%
antibody 43 (antibody, V domains shown, mouse IgG, kappa light chain; also called clone #43; purified antibody 43) VH: QVALKESGPGILQPSQTLSLTCSFSGFSLSTFGMGVGWIRQSSGKGLEWLANIWWDDDKYYNPALKSRLTISKDASKNQAFLKIANVDTADTATYYCARIGNYGSNYWYFDVWGTGTTVTVSS VL: QIVLTQSPAIMSASPGERVTMTCSANSRISYMYWYQQKPGSSPRLLIYDTSNLASGVPVRFSGSGSGTSYSLTISRMEAEDAATYNCQQWSSYPLTFGAGTKLELK | ≥ 30% | ≥ 60%
antibody 42 (antibody, V domains shown, mouse IgG, kappa light chain; also called clone #42; purified antibody 42) VH: QVTLKESGPGILQPSQTLSLTCSLSGFSLSTFGRGVGWIRQPSGKGLEWLAHIWWDDEKYYNPALKSRLTISKDTSKNQVFLRIANVDTADTATYYCARIQNYGSNYWYFDVWGTGTTVTVSS VL: LIVLTQSPAIMSASPGEKVTMTCGATSRISYMFWYQQKPGSSPRVLIYDTSNLASGVPVRFSGSGSGTSYSLTISRVEAEDVATYYCQQWNSYPLTFGAGTKLELK | ≥ 30% | ≥ 60%
antibody 22 (antibody, V domains shown, mouse IgG, kappa light chain; also called clone #22; purified antibody 22) VH: QVTLKESGPGILQPSQTLSLTCSFSGFSLSTFGMGVGWIRQPSGKGLEWLAHIWWDDEKYYNSALKSRLTISKATSKNQVFLKIANVDTADTATYYCARISNYGSNYWYFNVWGTGTTVTVSS VL: QVVLTQSPALMSASPGEKVTMTCSAGSSVSYMYWYQQKPGSSPRVLIYDTSNLASGVPARFTGSGSGTSYSLTISRMEAEDAATYYCQQWNSYPLTFGAGTKLELK | ≥ 30% | ≥ 30%
antibody 3 (antibody, V domains shown, mouse IgG, kappa light chain; also called clone #3; purified antibody 3) VH: QVTLKESGPGILQPSQTLSLTCSFSGFSLTTFAMGIGWVRQPSGKGLEWLAHIWWDGEKYNNPVLKSRLTISKDTSKNQVFLRIANVDTPDTATYYCARISSIYYIIDNWGQGTSVTVSS VL: DIVLTQSPATLSVTPGHSVSLSCRASQSISNNLHWYQKKSHESPRLLIKYVSQSISGIPSRFSGSGSGTDFTLSINSVETEDFGMYFCQQSYNWPLTFGAGTKLELK | ≥ 60% | ≥ 30%
